From US9915657B2, “Lateral flow device for diagnosing microbial infections” (THE JOHNS HOPKINS UNIVERSITY, priority 2009, dated 2018)

B1: MAb 838: IgMκ monoclonal antibody to galactofuranose-containing GM; VH SEQ ID NO:7, VL SEQ ID NO:8 (antibody, listed as Mus musculus, V domains shown)
VH: EVQLEESLRLSCATSGFTFSDFYMEWVRQPPGKRLEWIAASRNKANDYTTEYSASVKGRFFVSRDTSQSILYLQMNALRAEDTAIYYCARDVMITTGDWYFDVWGAGTTVTVSS
VL: DILMTQSQKFMSTSVGDRVSVTCKASQNVGTNVAWYQQKPGQSPKALIYSASYQYSGVPDRFTGSGSGTDFTLTISNVQSEDLAEYFCQQFNSYHVRLGDKVGIKT
modifications: (1)..(342) 838.9.4 VH (B4B); (1)..(318) 838.9.4. VL (p6)

What was measured:
[1] = rabbit model; within 24 hours of intravenous injection; cited from earlier work
[2] = Competition ELISA, relative affinities of GM-binding MAbs; design: species or system Aspergillus fumigatus
Method: FIG. 9 is a graph showing the relative affinities of GM-binding MAbs. Measurements were made by competition ELISA using soluble ethanol-precipitated culture filtrate. Percent of maximal binding is shown;
The relative affinities of the GM-binding MAbs were determined by competition ELISA. […] The % of maximal binding is shown in (FIG. 9). […] These values are similar to those reported for other polysaccharide-binding MAbs.
Competition ELISAs were done using each combination of the MAb pairs to confirm that the MAbs were binding to the same epitope and their relative avidities for GM. Biotinylation of the second MAb allowed the use of alkaline phosphatase-conjugated streptavidin for detection and was done by linkage of anion exchange-purified MAbs to sulfo-NHS-LC biotin. Competition among each of the MAb pairs was observed, supporting binding to similar epitopes or the presence of steric hindrance. […] The MAb 838-producing hybridoma manufactures relatively low concentrations of MAb, making use of this cell line difficult.

| Molecule | GM excreted in the urine [1] [%] | Kd ([2]; calculated from competition ELISA, read-out: dissociation constant (Kd)) [nM] | affinity for GM, higher than the other three MAbs ([2]; competition ELISA) | concentration required for competition, lower than for the other MAbs ([2]; competition ELISA between MAb pairs) |
| --- | --- | --- | --- | --- |
| Galactomannan [GM] | 35 |  |  |  |
| B1 |  | 100 | approximately 10 fold | approximately 10 fold |
